For test [1], the target named is T1, mGLP‐1 receptor (mouse, UniProt O35659 22-463).
T1 construct: mouse glucagon-like peptide-1 receptor, pcDNA3.1(+) plasmid from ThermoFisher; also called mouse GLP‐1 receptor; source: COS-7, transiently transfected (pcDNA3.1(+)), on whole cells
T1 sequence (looked up): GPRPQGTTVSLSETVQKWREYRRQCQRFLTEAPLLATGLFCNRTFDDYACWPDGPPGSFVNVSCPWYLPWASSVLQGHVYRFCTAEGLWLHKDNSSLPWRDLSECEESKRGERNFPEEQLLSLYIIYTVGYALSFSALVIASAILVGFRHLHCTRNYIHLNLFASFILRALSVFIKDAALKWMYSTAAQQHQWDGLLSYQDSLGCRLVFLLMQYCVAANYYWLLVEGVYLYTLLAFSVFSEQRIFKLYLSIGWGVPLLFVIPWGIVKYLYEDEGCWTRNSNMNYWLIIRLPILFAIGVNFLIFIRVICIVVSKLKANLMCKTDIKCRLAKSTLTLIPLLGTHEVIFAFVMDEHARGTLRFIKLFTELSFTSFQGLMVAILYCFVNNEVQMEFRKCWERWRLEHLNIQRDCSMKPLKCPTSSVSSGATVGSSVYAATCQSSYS

Test [2] addresses T1, mGLP‐1 receptor. The source holds these as a separate data set.
Test [3] concerns the target T2, rGLP‐2 receptor (rat, UniProt Q9Z0W0 1-550).
T2 construct: rat glucagon-like peptide-2 receptor, pcDNA3.1(+) plasmid from ThermoFisher; also called rat GLP‐2 receptor; source: COS-7, transiently transfected (pcDNA3.1(+)), on whole cells
T2 sequence (looked up): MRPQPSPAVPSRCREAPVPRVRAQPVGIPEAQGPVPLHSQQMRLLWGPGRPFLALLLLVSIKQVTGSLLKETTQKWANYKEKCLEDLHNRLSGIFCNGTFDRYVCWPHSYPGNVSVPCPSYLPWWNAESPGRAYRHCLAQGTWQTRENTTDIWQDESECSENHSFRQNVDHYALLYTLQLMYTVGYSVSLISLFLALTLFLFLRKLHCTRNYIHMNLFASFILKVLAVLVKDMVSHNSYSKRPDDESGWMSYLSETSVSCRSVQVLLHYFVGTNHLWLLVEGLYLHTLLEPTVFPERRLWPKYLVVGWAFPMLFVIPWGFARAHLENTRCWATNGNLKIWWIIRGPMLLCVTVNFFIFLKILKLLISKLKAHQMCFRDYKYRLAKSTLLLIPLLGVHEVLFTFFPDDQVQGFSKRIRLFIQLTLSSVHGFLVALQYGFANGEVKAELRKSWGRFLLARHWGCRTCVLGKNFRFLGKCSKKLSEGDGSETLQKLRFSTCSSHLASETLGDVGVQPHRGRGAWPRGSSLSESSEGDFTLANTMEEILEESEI
The following applies: one partner purified.

The target in test [4] is T1, mGLP‐1 receptor. The conditions noted are these: one partner purified.
The target in test [5] is T3, mGLP‐2 receptor (mouse, UniProt Q5IXF8 1-512).
T3 construct: mouse glucagon-like peptide-2 receptor, pcDNA3.1(+) plasmid from ThermoFisher; also called mouse GLP‐2 receptor; source: COS-7, transiently transfected (pcDNA3.1(+)), on whole cells
T3 sequence (looked up): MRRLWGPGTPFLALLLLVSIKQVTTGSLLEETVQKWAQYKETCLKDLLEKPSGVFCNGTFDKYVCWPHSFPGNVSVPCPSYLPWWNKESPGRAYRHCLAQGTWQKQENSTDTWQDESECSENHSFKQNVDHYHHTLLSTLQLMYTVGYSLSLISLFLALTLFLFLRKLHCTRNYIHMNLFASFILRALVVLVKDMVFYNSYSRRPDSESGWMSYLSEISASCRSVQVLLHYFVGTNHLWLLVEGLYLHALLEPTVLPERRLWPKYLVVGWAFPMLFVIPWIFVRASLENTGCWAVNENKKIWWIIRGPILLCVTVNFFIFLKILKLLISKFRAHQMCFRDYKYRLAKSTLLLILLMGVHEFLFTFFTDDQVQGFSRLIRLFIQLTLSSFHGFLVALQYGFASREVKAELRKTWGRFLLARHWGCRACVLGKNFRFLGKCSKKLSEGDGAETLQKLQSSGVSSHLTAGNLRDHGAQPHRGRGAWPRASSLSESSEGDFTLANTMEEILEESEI
The conditions noted are these: one partner purified.

Test [6] has as its target T2, rGLP‐2 receptor. The conditions noted are these: one partner purified. This is another data set of the same source.
Test [7] addresses T1, mGLP‐1 receptor. The conditions noted are these: one partner purified. This is another data set of the same source.
For test [8], the target named is T3, mGLP‐2 receptor. The conditions noted are these: one partner purified. The source holds these as a separate data set.

Read-outs that look alike come from different tables or passages of the source.

Regarding [^125I]‐hGLP‐2(1–33,M10Y) (peptide), in the test with mGLP‐1 receptor [1], the % max (specific binding of the radioligand, normalised to its binding to the mGLP-2 receptor) is 84.5%.

Regarding [^125I]‐hGLP‐2(3–33,M10Y) (peptide), the % max (specific binding of the radioligand, normalised to its binding to the mGLP-2 receptor) in the test with mGLP‐1 receptor [2] stood at 93.3%.

A word on the Ki: it is a measure of affinity in units of concentration, obtained from inhibition or displacement. Low readings indicate tighter binding, high ones weaker binding. For orientation: pIC50 means the IC50 on a negative log10 scale, so that one unit is a factor of ten. Low readings indicate a high IC50, high ones a low IC50. Take HADGSFSDEMNTILDNLAARDFINWLIQTKITD [hGLP‐2(1–33)]: the Ki was found to be 0.0054 µM with rGLP‐2 receptor [3]; 0.208 µM in the test with mGLP‐1 receptor [4]; 0.0066 µM with mGLP‐2 receptor [5]; 0.0065 µM with rGLP‐2 receptor [6]; 0.183 µM with mGLP‐1 receptor [7]; 0.018 µM with mGLP‐2 receptor [8]. The pIC50 in the test with rGLP‐2 receptor [3] came to 8.3; with mGLP‐1 receptor [4], 6.7; with mGLP‐2 receptor [5], 8.2; with rGLP‐2 receptor [6], 8.2; in the test with mGLP‐1 receptor [7], 6.7; with mGLP‐2 receptor [8] it was 7.7.

Values taken from PMC9303331, “Novel agonist and antagonist radioligands for the GLP‐2 receptor. Useful tools for studies of basic GLP‐2 receptor pharmacology” (British Journal of Pharmacology, 2022).
